Among the data in the NTF2 design screens of Basanta et al. (2020) are protease stability score values, retold here.

The nature of the series: protease stability score; higher = more stable; yeast display proteolysis, trypsin and chymotrypsin.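 Further: relative to predicted unfolded state with 0 unfolded-like and 1 meaning tenfold more protease.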
The sequence “TEEEEQIKEMMEEMQHSYKTGDWRAISELLDPNVRMHIGDKEFHGREDLLRVFKHIRVKHLEIHHVRIIDGRAEVETTYTLVVDGVEHVHHTHIHSRKINGRWHIEEVYIH” had a protease stability score of 2.02.

“TEEEETARHMVHEFYEVIKTGDEETFRKLLDPNTKLHVNGKERHGREAIDEMYHRFKNVRIHVEHVDVVDGKIDLRENWIQGDKETIVRIEAHKVDGRWELRSVHIH” yielded a protease stability score of 1.36.

For the sequence “TEEEEYLRKLTKDFIEAFLTGNWKEVARLLDPHTRLHVGEFEIHGREEMMKFMIELITRAGIKHQHIKSFETRIINGVVFLHVHMIVIVNGRNIERRLHVLFVKIDGRWTIEEVSEEHE”, the protease stability score came to 1.46.

Regarding “TEEEHFIKHATELWLRLLRTGDEHELSKMIDPHARVLIGDKNIHGRELASKFLSEFAHQIDHVEIRIKEVRTVDGKVDSDTRLDMHVDGQDIHHETRIISLKVDGKWLLQSFHFD”, the protease stability score came out at 0.456.

“TEEEHIIDDFDKRLLHAFVTGNEDLLAKLADPNVRLSVKIGDKTIERHGMESFRNWLRRFHEEIRIEDHKSDEVRFYNGVLEHHGTVLGHVNGVRTKVHVLEIYFIINGRMRNIWIEVR” had a protease stability score of 1.54.

Sequence “TEEEHLLKKLAELVWEAVETGDEDFLKKLVDPHTRLHVDGREHHGREDFIEILTRMGVDHHRLEHFRVIDGKLFIDGHFNFNGRYFRVHIIFIIINGRAKEFWMRTE” registered a protease stability score of 1.66.

As for “TEEEHLMKEMLDLWVEALMTGDEKLLSELMDPNTRFHLRYGDFLQDRHGRHIINHIIRHWRFHVFKIEDTKVFNGRAIADTHLDVEIDGRRVRTRTKVDLVTINGKIERLDLEID”, the protease stability score came out at 0.902.

Sequence “TEEEHLVEEMARRMLHSWLTGDEETLERLLDPNVRLEMIIDGVELRLHGREDMSRWLREWVERVDHVEIEIKRIRLIGEKSILDGQIHERQGDKERVIKTEIIVVVVDGRIHNSKIIIR” had a protease stability score of 1.14.

Sequence “TEEEHNVRIALSLYIETFKTGNEEVLRRRLDPNARLIFNGRDLHGRELIEDWIHEFHEKVPGLQIHRHEVKDWHVQGNKIDLDVHIDGVFDGKQTETRVILHILKVDGQWIMTVIEIR” had a protease stability score of 1.35.

Sequence “TEEEHWALHLLERILHHMLTGNESFIKHLFDPDTRWEVNGVENIGMERHSKLFLHMRIESIEIRSIHVRIVGEYIHIDVEIDIRGIVNGQRVEYHKKIHVIISKVNGRWHIKHYHESDE” gave a protease stability score of 1.22.

In turn, “TEEEKDSDDAFRHWVHSMRTGDEDRLRELIDPNARLLVNGRELHGMEWIITILSKEIKELRFKDVRLRDRDIVGNYAEVDVEIDMTIGEKEDSRDVVIFVLKVNGRWVIKEMHIR” yielded a protease stability score of 1.46.

As to “TEEEKELRHLYNRWLKDLQTGDEDSFRHLADPNVRLIVGDKDHHGWETSAQWMRELRERVDHLEIIVDSSHVINGRIESDTTIRLRVGDKTIEYRAEFEIDIVNGKMKRIVVREH”, the protease stability score is 0.998.

“TEEEKEVEDLLRVVIHALQTGDEKKISELVDPNMRVKIGDKINHGWENAFEFHVRFIKELGVDHINIHPRHVRLIGDKVEVHLNLIIHVNGRDHETEIRLTAIKVNGRWHIESFEEQ”: the protease stability score came out at 1.91.

“TEEEKFAEEMLRRFIENLITGDWRELKKLFDPDTKIVFNGREHHGMEWHIEFLREIRITHIEVRDMTLINGVAHANGHEIIIIGDKTLEMDTRINIVTINGRIHSIEIKQR” had a protease stability score of 2.54.

In the case of “TEEEKHARLVKEHIVEILKTGDEREWMERADPNMYMTVGNKEQHGREQVMHLIERLLKELGIKHSHIKRLELQGDKVHLDVELNFNGVTRDSRLIFIVINGRFHEVIIIIH”, the protease stability score worked out at 0.947.

“TEEEKHLRELTDRVLHEEETGDWRTLKELADPNVRFDYRYGDYFFHSHGREDVVKHLRHVFQEMRIERVHVKDRKNYNGKVEIHTEIHGVYNGVRFRTEVTIKIVIIDGRIHSHIWEIN” had a protease stability score of 0.305.

On to “TEEEKIFKKLMHLILNAFLTGDEELLHEYVDPHARVRVGDKEFHGRENIIHALRMLFHHLGIDHIEIDKVDVFNGRMEVHGTFHFDGKNVESILRFDVYNGRLKKEEIEWR”, for which the protease stability score was 0.726.

In turn, “TEEEKKSEEFLKKLTHAWRTGNEDTLTHMMDPHVRIDFNGQELIGMEHARRLISELRVEDLEIESITHQGNKVHIRGRDLVLFNGQQRTIDTIFILKKVDGRWIIESIEFR” returned a protease stability score of 1.9.
